Test [1] addresses 3 plasmid ICs (as tested with N6). The test is described as follows: native gel or EMSA. For orientation: In EMSA bound probe runs differently from free probe, usually more slowly.
For test [2], the target named is 48d.cl IC, fusion version (gpCore + 48d heavy chain fusion, Fab-Fab-crosslinked K126C) (HIV-1 strain BG505). Nature of the test: native gel or EMSA.
The next test addresses 2mutVRC01. The test is described as follows: SPR; OpenSPR-XT; C-terminally Strep-tagged antibody immobilised on Strep-Tactin XT over biotin sensor/streptavidin/biotinylated Strep-Tag peptide; analyte monovalent gpCore or ICs; 1:1 fit model; apparent kinetic values. Background: In SPR one partner is held on a chip, and binding of the other changes the refractive index at the surface.

The target in a further test is 7mutVRC01. The test is described as above.
A further test has as its target 3mutA32. The description is as above.
The target in a further test is wtA32. The test is described as follows: not stated; KD of wtA32 in Table 1, no footnote and no method told.
Test [3] has as its target GTi divalent immunogen, Fab-Fab-crosslinked version (HIV-1 strain BG505). The test is described as follows: native gel or EMSA.
Test [4] concerns the target GTiii divalent immunogen, Fab-Fab-crosslinked version (HIV-1 strain BG505). Nature of the test: native gel or EMSA.
Test [5] concerns the target GTii divalent immunogen, Fab-Fab-crosslinked version (HIV-1 strain BG505). Nature of the test: native gel or EMSA.

Chain of 3mutA32 (heavy, as listed by the source, chain 1 of 2): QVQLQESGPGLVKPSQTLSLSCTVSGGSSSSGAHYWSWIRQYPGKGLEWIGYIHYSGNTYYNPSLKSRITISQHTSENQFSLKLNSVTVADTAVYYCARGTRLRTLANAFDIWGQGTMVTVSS
Chain of 3mutA32 (light, as listed by the source, chain 2 of 2): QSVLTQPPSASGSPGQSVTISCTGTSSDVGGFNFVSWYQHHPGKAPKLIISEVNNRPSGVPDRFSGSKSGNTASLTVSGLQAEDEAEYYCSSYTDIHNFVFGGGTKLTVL
Chain of 7mutVRC01 (heavy, as listed by the source, chain 1 of 2): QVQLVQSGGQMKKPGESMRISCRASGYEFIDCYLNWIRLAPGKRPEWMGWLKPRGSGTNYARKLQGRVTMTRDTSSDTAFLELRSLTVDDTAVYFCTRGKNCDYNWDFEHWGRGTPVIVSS
Chain of 7mutVRC01 (light, as listed by the source, chain 2 of 2): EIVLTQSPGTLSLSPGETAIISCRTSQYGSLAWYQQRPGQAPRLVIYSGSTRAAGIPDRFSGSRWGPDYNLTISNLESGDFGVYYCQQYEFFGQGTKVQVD
Chain of wtA32 (heavy, as listed by the source, chain 1 of 2): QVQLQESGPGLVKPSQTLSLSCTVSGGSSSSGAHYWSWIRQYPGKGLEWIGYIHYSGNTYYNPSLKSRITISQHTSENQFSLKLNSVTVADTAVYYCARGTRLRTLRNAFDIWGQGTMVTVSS
Chain of wtA32 (light, as listed by the source, chain 2 of 2): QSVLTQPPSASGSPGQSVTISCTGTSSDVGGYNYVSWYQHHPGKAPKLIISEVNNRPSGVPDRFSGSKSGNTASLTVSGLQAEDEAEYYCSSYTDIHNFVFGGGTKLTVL
Chain of 2mutVRC01 (light, as listed by the source, chain 2 of 2, other chains not shown): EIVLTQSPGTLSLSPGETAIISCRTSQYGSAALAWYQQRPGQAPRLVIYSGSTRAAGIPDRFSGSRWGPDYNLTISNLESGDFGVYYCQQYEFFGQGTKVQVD

In general, stoichiometry N refers to a count of units in the complex or per binding partner. For the substance N6 (antibody), the stoichiometry N in [1] and in [2] was 1 in each case.

Turning to “gpCore (core gp120 of strain BG505), monovalent (domain or fragment)”, the Kd with 2mutVRC01 turned out to be 200 nM; with 7mutVRC01, 7 µM; with 3mutA32 it was 200 nM; in the test with wtA32, 0.4 nM.

For the substance “monomeric VRC01 IgM unmutated common ancestor (UCA) (antibody)”, the Kd in [3] was 800 to 1000 nM; in test [4] it was 25 nM; in [5], 60 nM.

(Values after publication PMC12846365.)
